These results are taken from patent publication US20210380703A1.

Substitutions are numbered along the chain they refer to.

First the molecules themselves.
B1: 374_F01 (antibody, V domains shown)
VH: EVQLLESGGGLVQPGGSLRLSCAASGFTFDSYSMNWVRQAPGKGLEWVSNINYNGGYTGYADSVKGRFTISRDNSKNTLYLQMNSLRAEDTAVYYCARSANWHDTALDYWGQGTLVTVSS
VL: DIQMTQSPSSLSASVGDRVTITCRASQSILSYVNWYQQKPGKAPKLVIYAATSRHSGVPSRFSGSGSGTDFTLTISSLQPEDFATYYCQQSYENPLTFGGGTKVEIK
B2: 374_G04 (antibody, V domains shown)
VH: B1 VH with D30S, S49A, N50G
VL: B1 VL with S31T, V33L, R54L, H55A, E93D
B3: 374_H03 (antibody, V domains shown)
VH: B1 VH with D30S, S33G, N50G, G55S, T58K, G59S
VL: B1 VL with H55A, E93D, N94S
B4: 374_G07 (antibody, V domains shown)
VH: B1 VH with D30S, N50G, G55S, T58K, G59S
VL: B1 VL with L30I, V33L, V47L, H55A, E93D, N94S
B5: 374_G06 (antibody, V domains shown)
VH: B1 VH with D30S, S33G, N35H, S49A, N50S, G59S
VL: B1 VL with V33L, V47L, A51V, H55A, E93D, N94L
B6: 374_H07 (antibody, V domains shown)
VH: B1 VH with S33G, S49A
VL: B1 VL with S31T, V33L, V47L, H55A, N94T
B7: 375_D05 (antibody, V domains shown)
VH: B1 VH with D30S, S49A, N50S, G55S, G59S, A106H
VL: B1 VL with L30V, V33L, V47L, R54L, E93D, N94T
B8: 375_A05 (antibody, V domains shown)
VH: B1 VH with D30S, S33G, S49A, T58K
VL: B1 VL with V33L, V47L, H55A, E93D, N94L
B9: 374_H09 (antibody, V domains shown)
VH: B1 VH with D30S, S49A, G55S, T58K, G59S
VL: B1 VL with V33L, A51V, R54L, H55A, E93D, N94L
B10: 374_E02 (antibody, V domains shown)
VH: B1 VH with D30S, N50G, G59S
VL: B1 VL with V33L, V47L, R54L, H55A, E93D, N94L
B11: 374_E05 (antibody, V domains shown)
VH: B1 VH with D30S, S49A, N50G, G59S
VL: B1 VL with Y32F, H55A, E93N, N94L
B12: 374_E11 (antibody, V domains shown)
VH: B1 VH with D30S, S33G, G59S
VL: B1 VL with L30V, S31T, V33L, H55A, E93D, N94S
B13: 374_F10 (antibody, V domains shown)
VH: B1 VH with D30S, N50G, G59S
VL: B1 VL with V33L, H55A, E93D
B14: 374_F11 (antibody, V domains shown)
VH: B1 VH
VL: B1 VL with V33L, V47L, A51V, R54L, H55A, N94S
B15: 375_C06 (antibody, V domains shown)
VH: B1 VH with S31D, S33G, N35H, S49A, N50S, G55S, G59S
VL: B1 VL with S31T, A51T, H55A, E93D, N94S
B16: 374_E08 (antibody, V domains shown)
VH: B1 VH with D30S, S33G, S49A, N50G, T58K, G59S
VL: B1 VL with V33L, V47L, E93D, N94L
B17: 374_F02 (antibody, V domains shown)
VH: B1 VH with S49A, G55S, G59S
VL: B1 VL with L30V, V33L, V47L, T52S, R54L, H55Q, N94L
B18: 375_D04 (antibody, V domains shown)
VH: B1 VH with S31D, Y32S, N35H, R98K
VL: B1 VL with H55A, N94L
B19: 374_H04 (antibody, V domains shown)
VH: B1 VH with N50G, G55S, G59S
VL: B1 VL with S31T, V33L, V47L, H55A, E93D
B20: 374_F04 (antibody, V domains shown)
VH: B1 VH with D30S, S33G, N50G, G55S, T58K, G59S
VL: B1 VL with S31T, V47L, H55A, E93N, N94S
B21: 374_H06 (antibody, V domains shown)
VH: B1 VH with D30S, S33G
VL: B1 VL with L30V, H55A, E93N, N94L
B22: 365_F12 (antibody, V domains shown)
VH: B1 VH with D30S, S31D, N50G, G59S, A106H
VL: B1 VL with S31T, N94T
B23: 367_A05 (antibody, V domains shown)
VH: B1 VH with D30S, S31D, S33G, N50S, T58K
VL: B1 VL with V33L, A51V, H55A, E93D, N94S
B24: 366_D04 (antibody, V domains shown)
VH: B1 VH with D30S, N50G, G59S
VL: B1 VL with L30S, V47L, A51T, H55A, N94T
B25: 366_H07 (antibody, V domains shown)
VH: B1 VH with D30S, S33G, N35H, N50G, G59S
VL: B1 VL with L30I, A51V, H55A
B26: 365_H11 (antibody, V domains shown)
VH: B1 VH with D30S, N50G, G55S
VL: B1 VL with S31T, V33L, V47L, H55A, E93D, N94S
B27: 367_B03 (antibody, V domains shown)
VH: B1 VH with D30S, S33G, S49A, N50G, T58K, G59S
VL: B1 VL with S31T, V33L, V47L, R54L, H55A, E93N, N94L
B28: 367_B08 (antibody, V domains shown)
VH: B1 VH with D30S, S31D, S33G, N50G, T58K
VL: B1 VL with S31T, V33L, H55A, E93D
B29: 365_G01 (antibody, V domains shown)
VH: B1 VH with S33G, S49A, N50G, G55S, T58K, G59S
VL: B1 VL with S31T, V47L, A51T, H55A, E93D, N94S
B30: 366_B08 (antibody, V domains shown)
VH: B1 VH with S33G, T58K, A106H
VL: B1 VL with L30V, V33L, V47L, E93D
B31: 366_F04 (antibody, V domains shown)
VH: B1 VH with D30S, S31D, S33G, N50G, G59S
VL: B1 VL with A51T, N94S
B32: 366_B10 (antibody, V domains shown)
VH: B1 VH with D30S, S33G, N50G, G55S, G59S
VL: B1 VL with L30I, V33L, V47L, H55A, E93D
B33: 366_A07 (antibody, V domains shown)
VH: B1 VH with D30S, S33G, N35H, S49A, N50S
VL: B1 VL with L30V, N94S
B34: 366_H08 (antibody, V domains shown)
VH: B1 VH with D30S, S31D, S33G, S49A, N50S, G55S, G59S, A106H
VL: B1 VL with V47L, E93N
B35: 366_F05 (antibody, V domains shown)
VH: B1 VH with D30S, S49A, G55S, T58K, G59S, A106H
VL: B1 VL with S31T, V33L, V47L, H55A, Y92D, E93N, N94T
B36: 366_H06 (antibody, V domains shown)
VH: B1 VH with D30S, S33G, N50S
VL: B1 VL with V33L, V47L, A51T, H55A, E93D, N94T
B37: 367_B07 (antibody, V domains shown)
VH: B1 VH with D30S, S31D, S49A, N50G, G55S, A106H
VL: B1 VL with L30I, V47L, R54L, H55A, E93N, N94L
B38: 366_G05 (antibody, V domains shown)
VH: B1 VH with S33G, G59S
VL: B1 VL with L30I, H55A
B39: 365_H03 (antibody, V domains shown)
VH: B1 VH with S31D, S33G, S49A, N50G, T58K, G59S
VL: B1 VL with R54L, E93N
B40: 366_G04 (antibody, V domains shown)
VH: B1 VH with D30S, N50G, G55S, G59S
VL: B1 VL with L30I, S31T, V33L, V47L, H55A, Y92D, E93D, N94T
B41: 366_F07 (antibody, V domains shown)
VH: B1 VH with D30S, S31D, S49A, N50G, G55S, G59S, A106H
VL: B1 VL with L30I, S31T, V33L, V47L, H55A, N94T
B42: 366_B12 (antibody, V domains shown)
VH: B1 VH with D30S, S49A, N50G, G55S, T58K
VL: B1 VL with S31T, V47L, H55A, E93D
B43: 367_A04 (antibody, V domains shown)
VH: B1 VH with D30S, G55S, T58K, G59S
VL: B1 VL with L30I, S31T, V33L, V47L, H55A, Y92D, E93D, N94S
B44: 366_E10 (antibody, V domains shown)
VH: B1 VH with S33G, N50G, T58K, A106H
VL: B1 VL with E93S, N94L
B45: 365_G11 (antibody, V domains shown)
VH: B1 VH with D30S, S33G, S49A
VL: B1 VL with L30I, S31T, V47L, A51V, E93N, N94S

The target of the first experiment is human Fc (human). The experiment can be described thus: ELISA; negative control. A general note: In an ELISA, binding on a coated surface is turned into a signal by an enzyme label.
B1 showed an optical density of 0.165 OD. Consider B2, for which the optical density amounted to 0.161 OD. Take B3: the optical density was 0.162 OD. B4: the optical density was 0.214 OD. Same read-out and setting: then B5, with 0.25 OD; and B6, with 0.163 OD. Still for that read-out and setting: then B7, with 0.202 OD. Turning to B8, the optical density stood at 0.202 OD. On the same count and under the same terms, next, B9: 0.158 OD. The same measure, in the same setting: then B10, with 0.527 OD; and B11, with 0.244 OD. The same measure, in the same setting: next, B12: 0.186 OD; B13: 0.524 OD. B14 displayed an optical density of 0.191 OD. The same measure, in the same setting: then B15, with 0.2 OD; and B16, with 0.251 OD. The same measure, in the same setting: then B17, with 0.169 OD; and B18, with 0.182 OD; and B19, with 0.167 OD. B20 displayed an optical density of 0.163 OD. The same measure, in the same setting: then B21, with 0.166 OD.

Another experiment deals with Human Fc (human). The experiment can be described thus: ELISA; negative control.
B22: the optical density was 0.411 OD. On the same count and under the same terms, next, B23: 0.269 OD. On the same count and under the same terms, next, B24: 0.338 OD; B25: 0.285 OD. On the same count and under the same terms, next, B26: 0.375 OD; B27: 0.318 OD; B28: 0.37 OD. As to B29, the optical density turned out to be 0.39 OD.

Turning to B30, the optical density amounted to 0.403 OD.

B31: the optical density amounted to 0.281 OD. Still for that read-out and setting: then B32, with 0.424 OD; and B33, with 0.309 OD. On the same count and under the same terms, next, B34: 0.417 OD; B35: 0.279 OD; B36: 0.285 OD. Still for that read-out and setting: then B37, with 0.236 OD. Turning to B38, the optical density is 0.28 OD. In turn, B39 showed an optical density of 0.366 OD. With B40, the optical density came to 0.31 OD. Same read-out and setting: then B41, with 0.353 OD; and B42, with 0.311 OD; and B43, with 0.267 OD.

The molecule B44 yielded an optical density of 0.271 OD.

For the molecule B45, the optical density was 0.278 OD.
